Experimental data: paper PMC4020817

Tests used:
[1] = test system: rA3A wild type (Homo sapiens); assay: fluorescence binding titration; conditions: EMSA: 0.5 pmol oligo, 2 ug rA3A in 10 ul deaminase buffer (composition not given), 4 C, 1 h, 6% native PAGE. Intrinsic fluorescence: 225 nM rA3A, 25 mM Tris pH …
[2] = target: A3A E72A/delWG104-5 E72A;del104-105 (Homo sapiens) (UniProt P31941); assay: extrinsic fluorescence titration; conditions: EMSA: 0.5 pmol oligo, 2 ug rA3A in 10 ul deaminase buffer (composition not given), 4 C, 1 h, 6% native PAGE. Intrinsic fluorescence: 225 nM rA3A, 25 mM Tris pH …
Chain of A3A E72A/delWG104-5 E72A;del104-105 (Homo sapiens) (P31941 other isoform, or with tags, fused parts or gaps E72A E72A): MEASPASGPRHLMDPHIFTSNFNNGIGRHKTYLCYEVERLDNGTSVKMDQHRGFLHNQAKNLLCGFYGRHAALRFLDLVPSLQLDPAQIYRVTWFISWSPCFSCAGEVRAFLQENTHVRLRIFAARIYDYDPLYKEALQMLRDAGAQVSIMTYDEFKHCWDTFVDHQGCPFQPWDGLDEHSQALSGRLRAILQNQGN

[3] = target: recombinant APOBEC3A (rA3A) (human) (UniProt P31941); assay: SEC; rA3A without concentration on a Superose-12 gel filtration column (FPLC) with protein standards, in the buffer used for measuring deaminase activity; fractions immunoblotted with anti-A3A antibody

Chain of recombinant APOBEC3A (rA3A), P31941 1-199 (enzyme; other documents disagree on this pair) (P31941 whole entry): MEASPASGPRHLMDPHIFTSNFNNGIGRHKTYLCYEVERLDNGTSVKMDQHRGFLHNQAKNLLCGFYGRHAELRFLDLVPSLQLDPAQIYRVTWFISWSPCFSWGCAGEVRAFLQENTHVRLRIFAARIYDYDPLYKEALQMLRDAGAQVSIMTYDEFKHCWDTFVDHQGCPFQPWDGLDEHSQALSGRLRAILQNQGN

Row | Substance | Kd [1] [nM] | binding signal (fold higher affinity than wild type) [2] | stoichiometry N [3]
1 | ssDNA oligo of fluorescence Kd assays | 158 | 3 | 
2 | recombinant APOBEC3A (rA3A), P31941 1-199 (enzyme; other documents disagree on this pair) |  |  | 2
